The results in this text go back to article PMC6327041 (Nature Communications, 2019).

In the experiment the target is T1, KDM5A1-797 ΔPHD1 (Homo sapiens, UniProt P29375, DEL288-347/INS286GSGSGSG).
T1 construct: The KDM5A1-797 ΔPHD1 construct was generated after removing the residues Ser287-Lys347; His (N, cleaved yes); made in house; host or cells: Sf21 insect cells (baculovirus)
T1 sequence (P29375 with tags, fused parts or gaps INS286GSGSGSG/DEL288-347): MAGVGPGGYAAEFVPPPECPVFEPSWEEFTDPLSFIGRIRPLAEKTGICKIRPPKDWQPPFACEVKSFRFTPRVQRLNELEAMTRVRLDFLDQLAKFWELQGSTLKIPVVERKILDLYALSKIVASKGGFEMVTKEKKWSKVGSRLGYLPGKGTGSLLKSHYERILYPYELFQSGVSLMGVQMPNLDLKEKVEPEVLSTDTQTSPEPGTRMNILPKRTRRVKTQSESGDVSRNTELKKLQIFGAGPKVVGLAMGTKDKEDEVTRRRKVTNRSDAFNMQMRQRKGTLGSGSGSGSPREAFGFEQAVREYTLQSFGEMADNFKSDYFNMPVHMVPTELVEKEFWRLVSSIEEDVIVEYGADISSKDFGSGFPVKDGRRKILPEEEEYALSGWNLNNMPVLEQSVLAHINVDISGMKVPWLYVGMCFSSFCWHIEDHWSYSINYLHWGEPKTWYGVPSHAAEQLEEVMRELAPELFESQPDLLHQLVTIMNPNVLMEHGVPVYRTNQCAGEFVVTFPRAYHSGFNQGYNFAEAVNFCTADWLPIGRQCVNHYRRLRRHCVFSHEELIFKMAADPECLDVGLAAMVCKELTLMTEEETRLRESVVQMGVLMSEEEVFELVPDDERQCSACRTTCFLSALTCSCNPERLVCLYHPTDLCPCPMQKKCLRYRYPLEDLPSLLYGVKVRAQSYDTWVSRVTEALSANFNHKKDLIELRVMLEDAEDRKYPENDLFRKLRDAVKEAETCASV
Put plainly: KDM5A ΔPHD1 demethylation, formaldehyde release assay. It counts as biochemical. The procedure: The KDM5A1-797 ΔPHD1 construct was generated after removing the residues Ser287-Lys347 and replacing them with a (GS)4 linker before cloning into a pFASTBAC HTA vector. The protocol for expression and purification of the KDM5A1-797 ΔPHD1 construct was the same as WT.
Michaelis–Menten parameters were determined using Graphpad Prism.

Setting [1] is: KDM5A1-797 ΔPHD1, n ≥ 3, s.e.m.

Broadly, the kcat/Km is the second-order rate constant that governs catalysis at low substrate concentration. In general, Km refers to the concentration of substrate that gives half-maximal velocity. By kcat is commonly meant the maximal rate divided by the concentration of active sites.

As for “Ac-H3K4me3 21mer: N-terminally acetylated 21mer H3K4me3 peptide, catalytic domain substrate”, the kcat/Km (KDM5A1-797 ΔPHD1) is 57.7 ± 13.7 M⁻¹ s⁻¹. Under setting [1], the Km was 819 ± 133 µM and the kcat stood at 0.0472 ± 0.0035 s⁻¹. For the setting “ΔPHD1 vs WT KDM5A1-797”, the “increase in Km on PHD1 deletion” value is on record as “eightfold”.
